# The nanobody polyreactivity screen of Harvey et al. (2022)
# Assay: yeast display, Sf9 membrane polyspecificity reagent, FACS + sequencing; frameworks hold sequencing errors
# How it was run: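 Galactose-induced (36–48 hours) yeast carrying a synthetic nanobody display library were exposed to 10% biotinylated, detergent-solubilized Sf9 membrane reagent at 4 °C for 1 hour. FACS followed streptavidin microbead enrichment, using low and high (top ~1%) gates for expression (anti-HA) and reagent binding (streptavidin). Colony PCR, MiSeq 2 × 250 sequencing and CDR-length filtering followed. Labels for polyreactivity reflect the gate of origin.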
row,Sequence,polyreactivity (PSR sort gate)
1,QVQLEESGGGLVQAGGSLRLSCAASGFTFALYAMGWYRPAPRNEMEFVAAISRRGGSTYYADSVKGRFTISRDNAKNTVYLQMNSLKPEDTAVYYCAANYPFGVYHGAPYGYWGQGTQVTVSS,high polyreactivity
2,QVQLVESGGGLVQAGGSLRLRCAASGRYAMGWYRQAPGKEREFVARITWSGGSTYYADSVKGRFTISRDNAKNTVYLQMNSLNPEDTAVYYCAKVSRRTDYYYWGQGTQVTVSS,high polyreactivity
3,QVQLVESGGGLVQAGGSLRLSCAASGSTFGSYAMGWYRQAPGKERELVAVITGGGDTNYADSVKGRFTISRDNAKNTVYLQMNSLKPEDTAVYYCAAEGSFYRYHVGSDYWGQGTQLTVSS,low polyreactivity
4,QVQLVESGGGVVQAGGSLRLSCAASGFTFVRYTMGWYRQAPGKERELVAAITKRGGSTYYADSVKGRFTISRDNAKNTVYLQMNSLKPEDTAVYYCAAAVGNTDREYDYWGQGTQVTVSS,low polyreactivity
5,QVQLVESGGGLGQAGGSLRLTCAASGSIFRSYAMGWYRQAPGKESEFVATISSSTGSTYYADSVKGRFSISRDNAKNTVYLPMNSLKPEFTAVYYCAAVQPVKSSSGYHFWYYWGQGTQVTVSS,high polyreactivity
6,QVQLVESGAGLGQAGGSLRLSCAASGSNDIYAMGWNRQEPGKEREFVAAISYSSGSTYYADSVKGRFTISRDNAKNTVFLQMNSLIPVDTAVYYCAAVWQAGVYRYYYWGQGTQVTVSS,high polyreactivity
7,QVQLVESGGGLVQAGGSLRLSCAASGSTFQYYAMGWYRPAPGKERELVAAISSGGSTYYADSVMGRFTISRDNAKNTVYLQMNSLKPEDNAVYYCAAYDYDGVYGYCGQGTQVTVSS,high polyreactivity
8,QVQLVESGGGLVQAGGSLRLSCAASGRTFYTYVMGWYRQAPGKEREFVAAITYSGGSTYYADSVKGRFTISRDNAKNTVYLQMNSLKPEDTAVYYCNAEWTYSEWYGQYLEFDYWGQGTQVTVSS,high polyreactivity
9,QVQLVESGGGLVQAGGSLRLSCAASGNTFAFNAMGWYRQATGKEREFVAAISYSGVSTYYADSVKGRFTISRDNAKNTVYLQMNSLKPEDTAVYYCAARYGWYKYWYDYWGQGTQVTVSS,high polyreactivity
10,QVQLVESGGGLVQAGGSLRLSCAASGRTFPYYTMGWYRQAPGKERELVAAITSGGSTHYADSVKGRFTISRDNAKNTVYLQMNSLKPEDTAVYYCAADLFYHSYGYEYWGQGTQVTVSS,low polyreactivity
11,QVQLVESGGGLVQAGGSLRLSCAASGFIFEYYAMGWYRQAPGKERELVAAISSGGGRTYYADSVKGRFTISRDNAKNTVYLQMNSLKPEDTAVYYCAAGFYVDYQLYEYWGQGTQVTVSS,high polyreactivity
12,QVQLVESGGGLVQAGGSLRLSCAASGRIFRFNAMGWYRQAPGKERELVAAITGSGGTTFYADSVKGRFTISRDNAKNTVYLQMNSLKPEDTAVYYCNTLGNWRPVYNQPRYEYWGQGTQVTVSS,high polyreactivity
13,QVQLVESGGGLVQAGGSLRLSCAASGSTFGIYAMGWYRPAPGKERELVAAISSGGSTNYADSVKGRFTISRDNAKNTVYLQMNCLKPEDSAVYYCAVESVYEYGGYVDSAYDYWGQGTQVTVSS,low polyreactivity
14,QVQLVESGGGLVQAGGSLRLSCAASGNTYSYNAMGWYRQAPGKEREFVASISRRGGRTNYADSVKGRFTISRDNAKNTVYLQMNSLKPEDTAVYYCAATTVPLGDYWGQVTQVTVSS,high polyreactivity
15,HVQLVESVGGLVQAGGSLRLRCAASGLTFRCNGMGWYRQEPGKETELVAAISSSGGSTYYADSVKGRFTISRDNAKNTVYLQLNSLKPEDTGVYFCARLVFYSQGVREMDYWGQGTQVTGSS,high polyreactivity
16,QVQLVESGGGLVQAGGSLRLSCAASVLTFSYYALGGSRPAHGTERELVAAITSSGGRTTYADSVKGRFTISRDNAKNTVYLQMNSLKPEDTAVYYCNVVRCTLKYGYWGQGTQVTVSS,high polyreactivity
17,QVQLVESGGGLVQAGGSLRLSCAASGSTFYTYAMGWYRQAPGKERELVAAISNRGGSTRYADSVKGRFTISRDTAKNTVYLQMNSLKPEDTAVYYCAARVTQTGYYWGQGTQVTVSS,high polyreactivity
18,QVQLGESGGGLVQAGGSLRLTCAASGSIFRYYAMGWYRQAPGKERELVAAIRWSGGRTYYADSVKGRFTISRDNAKNTVYLQMNSLKPEDTAVYDCAADPPHYKPNVRYYYWGQGTQVTVSS,high polyreactivity
19,QVQLVESGGGLVQAGGRLRLSCAASGRTFSKYGMGGYRQAPGKEREFVAAISSSGDSTTYADSVKGRFTISRDNAKNAVYLQMNSLKPEDTAVSYCARQTSRYTGGERAYGYWGQGTQVTVSS,low polyreactivity
20,QVQLVESGGGLVQAGGSLRLSCAASGFTCPSYNMRWYRQAPGKERELVAAISRSDGNTYYADSVKGRFTISRDNAKNTVYLQMNSLKPEDTEVYYCAAEYEAYAYEYWGQGTQVTVSS,high polyreactivity
21,QVQLVESGGGLVQAGGSLRLSCAASGFIFDNNAMGWYRQAPGKEREFVAAISGSGGSTYYADSVKGRFTISRDNAKNTVYLQMNSLKPEDTAVYYCAAPIPDYTYIYPAYDDYWGQGTQVTVSS,low polyreactivity

row,Sequence,polyreactivity (PSR sort gate)
1,QVQLVESAGGLVQAGGSLRLSCAASGITHHHNAIGWSRQAPRKERELVAAITSNGGSTYYAVSVKGRFTISRDHAKNSVYLQINSLKPEDTAVYYCARDSKRLARYYYWGQGTQVTVSS,low polyreactivity
2,QVQLEESGGGLVQAGGSLRLSCAASGYIFDYNAMGWYRQAPGKERELVAVISRGGRTYYADSVKGRFTISRDNAKNTVYLQMNILKPEDTAVYYCAADRQSYPYDYWGQGTQVTVSS,high polyreactivity
3,QVQLVESCGGLVQAGASLRLSCAASGRTFSENAMGWYRQARGKEREFVAGNSFSGDGRTYYADSVKGRFTISRDNAKNTVYLQMNSLKPEDTAVYYCAAPHRSRTHELDYWGQGTQVTVSS,low polyreactivity
4,QVQLVESGGGLVQAGGSLRLSCAASGFIFDYYAMGWYRQAPGKERELVAVINQSGTSTYYADSVKGRFTISRDNAKNTVYLQMNSLKPEDTAVYYCSVDYGTPVYWDEMYYWGQGTQVTVSS,low polyreactivity
5,QVQLVESGGGLVQAGGSLRLSCAASGITLEVYAMGWYRQAPGKERELVAAITDSGGRTYYADSVKGRFTISRDNAKNTVYLQMNSLKPEDTAVYYCAADDTRVYGAGEYWGQGTQVTVSS,low polyreactivity
6,QVQLVESGGGLVQAGGSLRLSCAASGSTFSWYAMGWYRQAPGKERELVASISWRGGSTYYADSVKGRFTISRDNAKNTVSLQMNSLKPEDTAVYYCAADYDWKLFHEPPAVYDYDYWGQGTQVTVSS,low polyreactivity
7,QVQLVESGGGLVQAGGSLRLSCAASGSIFYRYAMGWYRQAPGKERELVSSISSGVSTNYADYVKGRFTISRDNAKNTVYLQINSLKREDTAVYYWAAYYRGWSSSYWFPAYNYWGQGTQVTVSS,low polyreactivity
8,QVQLVESGGGLVQAGGSLRLSCAASGFTFFAYPMGWYRQAPGKERELVAGISRSGGRTYYADSVKGRFTISRDNAKNTVYLQMNSLKPEDTAVYYCNAVVRRSYLLEYDFCGQGTQVTVSS,high polyreactivity
9,PVQLVESGGGLVQAGGSLRLICAASALTFPPYSMGWYRQAPAKERELVAAISRNAGNTYYADSVKGRFTISRDTAKNTVYLQMNSLKPEDTAVYYCAAKRGTQGMYYWGQGTQVTVSS,high polyreactivity
10,QVQLVESGGGLVQAGGSLRLSCAASGRTLAPYAMGWYRQAPGKERELVAISTSGGSTYYADSVKGRFTISRDNGKNTVYLQMNSRKPEDNAVYYCAADGNSTGVYWWFYGFDYWGQGTQVTVSS,low polyreactivity
11,QDQLVESGGGLVQAGGSLRLSCAASGFIFYFYAMVWYRQAPGKERELVAAISSGGSTNYADSVKGRFTISRDNAKNTVYLQMNSLKPEDTAVYYCNKGGYYKYFLNDYNYWGQGTQVTVSS,low polyreactivity
12,HVQLVESGGGLVQAGGSLRLSCAASGRIFPSNTMGWYRQAPGKERELVAAITRGDRTNYADSVKGRFTISRDNAKNTVYLQMNSLKPVDTAVYYCNARWGLPFGSGYYYWGQGTQVTVSS,low polyreactivity
13,QVQLVESGGGLVQAGGSLRLSCAASGFTFTAYAMGWYRPAPGKERELVAAISYRGGRTNYAYSVKGRFTISRDNAKNTVYLQMNSLKPEDTAVYYCAARPRISTREMDYWGQGTQVTVSS,high polyreactivity
14,QVQLVESGGGLVQAGGSLRLSCAASGGIFWYNAMGWYRQAPGKERELVADISSSGITYYADSVKGRFTISRDNAKNTVYLQMKSLKPEDTAVYYCAADSTTRPGLRVYDDYDYWGQGTQVTVSS,low polyreactivity
15,KVQLVESGGGLVQAGGSLRLSCAASGRTFLRYAMGWYRQAPGKERELVAAISTSGGSTYYADSVKGRFTISRDNAKNTVYLQMNSLKPEDTAVYYCAATSTSYTYTHSYGYWGQGTQVTVSS,low polyreactivity
16,QVQLVESVGGLDQAGGRLRLSCAASGFTIRPYVRRAYRQAPGTERELVAGISTGGSTYYADSVKGRFTISRDNAQNTVYLQMNRLKPEDTAVYDCAKRGKQYRKMNYWGQGTQVTVSS,high polyreactivity
17,QVQLVESGGGLVKAGGSLRLSCAASGSIFSNNAMGWYRQAPGKEREFVAAIRGRGTRTYYADSVKGRFTISRDNAKNTVYLQMNSLKPEDTAVYYCAKYPFQPRDLQFNYWGQGTQVTVSS,high polyreactivity
18,QLQLVESGGGLVQAGGSLRLSCAASGGTFYSYEMGWYRQATVKEREFVAAITYGGGSTYYADSVKGRFTMSRDNAKNTDYLQMNSLKPEDTAVYYCYARRYGSRLGERYYYWGQGTQVTVSS,high polyreactivity
19,QVQLVESGGGLVQAGGSLRLSCAASGSTFRGNAMGWYRQAPGKERELVAAITGRGGRTYYADSVKGRFTISRDNAKNTVYLQMNSLKPEDTAVYYCAAYSRYKPYGITAYDYWGQGTQVTVSS,high polyreactivity
20,QVQLVESGGGLVQAGGSLRLSCAASGFTFFSNAMGWYRQAPGKERELVAAITSSGGSTYADSVKGRFTISRDNAKNTVYLQMNSLKPEDTAVYYCAADAEAPPGGFKEYDYWGHGTQVTVSS,low polyreactivity
